B1: GHR-106: monoclonal antibody against synthetic peptide of positions 1-29 of the extracellular domain of human GnRH receptor; hybridoma ATCC PTA-10252 (antibody, V domains shown)
VL: MDSQAQVLILLLLWVSGTCGDIVMSQSPSSLAVSAGEKVTMSCKSSQSLLNSRTRKNYLAWYQQKPGQSPKLLIYWASTRESGVPDRFTGSGSGTDFTLTISSVQAEDLAVYYCKQSYNLYTFGGGTKLEIK
VH: QVQLKESGPGLVAPSQSLSITCTVSGFSLSRYSVHWVRQPPGKGLEWLGMIWGGGSTDYNSALKSRLSISKDNSKSQVFLKMNSLQTDDTAMYYCARGNDGYYSFAYWGQGTLVTVSS
modifications: Synthetically constructed monoclonal antibody GHR106
B2: GHR-103: monoclonal antibody to human GnRH receptor; amino acid sequence determined to be the same as that of GHR-106 (antibody, V domains shown)
VL: MDSQAQVLILLLLWVSGTCGDIVMSQSPSSLAVSAGEKVTMSCKSSQSLLNSRTRKNYLAWYQQKPGQSPKLLIYWASTRESGVPDRFTGSGSGTDFTLTISSVQAEDLAVYYCKQSYNLYTFGGGTKLEIK
VH: QVQLKESGPGLVAPSQSLSITCTVSGFSLSRYSVHWVRQPPGKGLEWLGMIWGGGSTDYNSALKSRLSISKDNSKSQVFLKMNSLQTDDTAMYYCARGNDGYYSFAYWGQGTLVTVSS

Assays:
[1] = system: OC-3-VGH ovarian cancer cells; assay: MTT assay, anti-proliferative effects; type: cell-based, human; settings: 48 hrs; GnRH 0.1 μg/ml, Antide 0.1 and 0.2 μg/ml, GHR-106 10 and 20 μg/ml
Experimental: Anti-proliferative effects of GnRH and GHR-106 monoclonal antibody on the growth of cultured cancer cells were also studied by MTT assay. An MTT assay was performed on cancer cells on a 24-well plate, as described by Choi, J-H, et al., Endocrine-Related Cancer (2006) 13:641-651.
1×10^4 Cells were dispensed into each well and cultured for 48 hours. Following removal of cultured media, fresh medium containing GnRH (0.1 μg/ml) or GHR-106 (10 μg/ml) was added to each well for additional 48 hours incubation. After the culture medium was removed, 200 μl of MTT (3-(4,5-dimethylthiazol-2-yl)-2,5-diphenyltetrazoliumbromide) (2.5 mg/ml in PBS, Sigma) was added to each well. After 5 hours of incubation with MTT at 37° C. in a 5% CO2 incubator, the supernatant was removed, and 200 μl of dimethylsulfoxide (DMSO) was added to each well, and shaking at 150 rpm for 5 min. Absorbance at 560 nm was determined spectrophotometrically. The negative control containing cells without any antibody treatment served as the negative control.

[2] = system: ribosomal proteins (P0, P1, P2 and L37) mRNA in OC-3-VGH cancer cells; assay: Semi-quantitative RT-PCR of mRNA expression of ribosomal proteins; type: cell-based, human; settings: 24 hours, GHR-106 10 μg/ml, GnRH 0.1 μg/ml, relative to GAPDH
Description: Four ribosomal proteins (P0, P1, P2 and L37) were selected for semi-quantitative analysis of mRNA expression. Expression of mRNA of GAPDH gene was used as the internal control. Primers for amplification were as follows:
A housekeeping gene, glyceraldehyde-3-phosphate dehydrogenase (GAPDH) was amplified to check the functional integrity of cDNA and used as internal control by using 5′-[…]-3′ (sense) (SEQ ID NO:20) and 5′-[…]-3′ (antisense) (SEQ ID NO:21) as primers (805 bp) (11).
RNA extraction, cDNA preparation and PCR amplification were conducted as described above in Preparation A.
Percent changes in RT-PCR signals which represent levels of P0, P1, P2, and L37 ribosomal proteins are presented with respect to GAPDH (100%) at 0 and 24 hrs. Messenger RNA expression of these genes of cultured cells without GHR-106 treatment served as the internal negative control and those with GnRH treatment served as positive control.

[3] = biological target: T1, GnRH receptor on OC-3-VGH cancer cells (Homo sapiens, UniProt P30968); assay: Competition with GHR-106 for binding to microwells coated with OC-3-VGH cancer cells; settings: 2 μg/ml GHR-106; GnRH 0.1 to 10 μg/ml
T1 construct: endogenous in cells; host or cells: OC-3-VGH ovarian cancer cells
T1 sequence (P30968 1-328): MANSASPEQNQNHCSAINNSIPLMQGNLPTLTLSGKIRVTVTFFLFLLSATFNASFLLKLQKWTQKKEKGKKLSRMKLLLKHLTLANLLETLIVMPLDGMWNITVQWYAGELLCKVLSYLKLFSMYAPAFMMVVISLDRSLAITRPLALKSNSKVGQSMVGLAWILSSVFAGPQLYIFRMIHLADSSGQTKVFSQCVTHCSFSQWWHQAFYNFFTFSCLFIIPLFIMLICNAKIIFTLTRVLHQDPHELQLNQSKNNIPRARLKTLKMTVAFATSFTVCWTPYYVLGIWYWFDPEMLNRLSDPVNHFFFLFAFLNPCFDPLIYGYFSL
Experimental: (§1) Microwells coated with synthetic peptide or cancer cells were used to estimate the affinity constant between GHR-106 and GnRH receptor. Following one hour incubation at 37° C. with GHR-106 in microwells, goat anti-mouse IgG labeled with alkaline phosphatase served as the second antibody for signal detection with p-nitrophenylphosphate.
The decrease in relative signal intensity of antibody binding to cancer cells with increasing GnRH concentrations ranging from 0.1 to 10 μg/ml is shown in FIG. 3A.

[4] = system: A549; assay: TUNEL apoptosis assay, A549; type: cell-based, human; settings: 24-hour treatment
[5] = system: MDA-MB-435S; assay: TUNEL apoptosis assay, MDA-MB-435S; type: cell-based, human; settings: 24-hour treatment
[6] = system: DU-145; assay: TUNEL apoptosis assay, DU-145; type: cell-based, human; settings: 24-hour treatment
[7] = biological target: T2, human GnRH receptor (Homo sapiens, UniProt P30968); assay: Western blot assay of OC-3-VGH ovarian cancer cell extract; type: binding; settings: OC-3-VGH cancer cell extract
T2 construct: endogenous in cells; host or cells: OC-3-VGH ovarian cancer cells
T2 sequence (P30968 1-328): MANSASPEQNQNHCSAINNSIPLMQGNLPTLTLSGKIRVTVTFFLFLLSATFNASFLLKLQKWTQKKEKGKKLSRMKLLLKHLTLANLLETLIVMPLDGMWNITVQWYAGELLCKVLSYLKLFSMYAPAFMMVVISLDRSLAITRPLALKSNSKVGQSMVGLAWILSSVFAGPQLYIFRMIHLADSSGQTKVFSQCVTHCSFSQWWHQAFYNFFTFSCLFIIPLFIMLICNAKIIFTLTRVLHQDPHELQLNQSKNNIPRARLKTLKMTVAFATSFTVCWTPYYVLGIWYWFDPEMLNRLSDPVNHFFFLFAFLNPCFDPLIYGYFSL
Experimental: Western blot assay was performed with GHR-106 using alkaline phosphatase-labeled goat anti-mouse IgG as the detecting probe.

[8] = biological target: T3, synthetic peptide corresponding to the N-terminal 1-29 amino acid residues of human GnRH receptor (Homo sapiens, UniProt P30968); assay: ELISA, dose-dependent binding to microwells coated with synthetic peptide; settings: one hour incubation at 37° C.
T3 construct: purchased Gemed Lab, South San Francisco, Calif. and Genescript, NJ (custom synthesis)
T3 sequence (P30968 1-29 limits assumed): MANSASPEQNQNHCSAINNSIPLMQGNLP
Experimental: as §1

[9] = system: OC-3-VGH cancer cells; assay: ELISA, dose-dependent binding to microwells coated with cancer cells; parameters: species or system human; settings: one hour incubation at 37° C.
Experimental: as §1

| Molecule | anti-proliferative effect (relative absorbance at 560 nm normalized with negative control) [1] | mRNA expression of four ribosomal proteins (P0, P1, P2 and L37) [2] | % Apoptosis (Negative Control*) ([4]; A549, 10 μg/mL) | % Apoptosis (Negative Control*) ([4]; A549, 20 μg/mL) | % Apoptosis (Negative Control*) ([5]; 20 μg/mL) | % Apoptosis (Negative Control*) ([6]; DU-145, 10 μg/mL) | % Apoptosis (Negative Control*) ([6]; DU-145, 20 μg/mL) | molecular weight of protein band recognized in Western blot [7] | dose-dependent binding to 1-29 synthetic peptide coated onto microwells [8] | dose-dependent binding to OC-3-VGH cancer cells coated on microwells [9] | other results |
| --- | --- | --- | --- | --- | --- | --- | --- | --- | --- | --- | --- |
| Antide | induce apoptosis, although to a much lesser extent | – | – | – | – | – | – | – | – | – | – |
| Gonadotropin releasing hormone [GnRH I, reference compound] | significantly inhibit the growth of cultured cancer cells | down regulation of mRNA expression | – | – | – | – | – | – | – | – | – |
| MANSASPEQNQNHCSAINNSIPLMQGNLP (SEQ ID NO:7) (PEPTIDE (1)...(29) extracellular domain of human GnRH receptor; listed as Homo sapiens) [1-29 synthetic peptide, synthetic peptide corresponding to N-terminal residues 1-29 of human GnRH receptor] | – | – | – | – | – | – | – | – | – | – | inhibition of the binding of GHR-106 to cancer cells coated on microwells [3]: inhibit GHR-106 binding |
| RP215: antibody used as positive control in the apoptosis assay [reference compound] | – | – | 30 ± 9 (11 ± 5)^+ % | 36 ± 12 (17 ± 3)^+ % | 37 ± 8 (6 ± 1)^+ % | 32 ± 7 (12 ± 3)^+ % | 43 ± 4 (19 ± 15)^− % | – | – | – | – |
| B1 | significantly inhibit the growth of cultured cancer cells | significant decrease in expression | 34 ± 10 (11 ± 5)^+ % | 46 ± 11 (17 ± 3)^+ % | 45 ± 11 (6 ± 1)^+ % | 32 ± 2 (12 ± 3)^+ % | 32 ± 5 (19 ± 15)^− % | approximately 60 KDa | dose-dependent binding | dose-dependent binding | % Apoptosis (Negative Control*) ([5]; 10 μg/mL): 31 ± 4 (7 ± 2)^+ % |
| B2 | – | – | – | – | – | – | – | 60 KDa | dose-dependent binding | dose-dependent binding | – |

Reference: patent US8361793B2, “Monoclonal antibodies against gonadotropin-releasing hormone receptor” (Vancouver Biotech Ltd., priority 2009, dated 2013)
